Data as given in patent US20110076232A1 (published 2011).
Ends that are not written are not given here.

Key:
[1] = target: C271A/C283A-EGFR (full length, on Ba/F3 cells) (human) (UniProt P00533); assay: FACS median fluorescence, Ba/F3 cells, four clones; reference anti-FLAG M2
[2] = target: wtEGFR-FLAG (N-terminally FLAG-tagged wild-type EGFR on Ba/F3 cells) (human) (UniProt P00533); assay: FACS median fluorescence, Ba/F3 cells; reference anti-FLAG M2
[3] = target: wild-type epidermal growth factor receptor (wtEGFR) (human) (UniProt P00533); assay: Scatchard, A431 cells
[4] = target: T1, 15N-labelled EGFR287-302 peptide with methionine mutated to leucine (human, not fully specified (bridges); cysteine pairing not given here; also: 15N-labelled (residues not given here)); assay: NMR, perturbation of 15N HSQC spectra
T1 peptide: CGADSYELEEDGVRKC

[5] = target: T2, Peptide C: LEEKKGNYVVTDH(K-Biot)-OH (biotin on the added C-terminal Lys (K-Biot)); assay: BIAcore, Peptide C on streptavidin chip
T2 peptide: LEEKKGNYVVTDHK

[6] = target: T3, EGFR peptide 287-302 (806 peptide epitope) (human, not fully specified (bridges); printed as 287CGADSYEMEEDGVRKC302; cysteine pairing not given here); assay: BIAcore, immobilised peptide 287-302, antibody 200 nM
T3 peptide: CGADSYEMEEDGVRKC

Molecule monoclonal antibody 528 has a ratio of antibody binding mAb 528/M2 [1] of 1.08, a ratio of antibody binding mAb 528/M2 [2] of 1.37 and a binding sites per cell (sites per cell) [3] of 2e+06. For the same molecule, the receptors per cell (receptors per cell) [3] was 2e+06.

B1: Fab fragment of mAb806 (Fab, V domains shown)
VH: DVQLQESGPSLVKPSQSLSLTCTVTGYSITSDFAWNWIRQFPGNKLEWMGYISYSGNTRYNPSLKSRISITRDTSKNQFFLQLNSVTIEDTATYYCVTAGRGFPYWGQGTLVTVSA
VL: DILMTQSPSSMSVSLGDTVSITCHSSQDINSNIGWLQQRPGKSFKGLIYHGTNLDDEVPSRFSGSGSGADYSLTISSLESEDFADYYCVQYAQFPWTFGGGTKLEIKR
notes: papain Fab of the intact mAb; also called Fab806
B1: binds [4].

B2: monoclonal antibody 806 (mAb806) (antibody, V domains shown)
VH: DVQLQESGPSLVKPSQSLSLTCTVTGYSITSDFAWNWIRQFPGNKLEWMGYISYSGNTRYNPSLKSRISITRDTSKNQFFLQLNSVTIEDTATYYCVTAGRGFPYWGQGTLVTVSA
VL: DILMTQSPSSMSVSLGDTVSITCHSSQDINSNIGWLQQRPGKSFKGLIYHGTNLDDEVPSRFSGSGSGADYSLTISSLESEDFADYYCVQYAQFPWTFGGGTKLEIKR
notes: murine IgG2b; also called m806
B2: no binding (tested: 100 nM) [5].

B3: monoclonal antibody 1133 (mAb1133) (antibody, V domains shown)
VH: DVQLQGSGPSLVKPSQSLSLTCTVTGYSITSDYAWNWIRQFPGNKLEWMGYISYSGNTRYNPSLRSRISITRDTSKNQFFLQLNSVTTEDTATYYCATAGRGFPYWGQGTLVTVSA
VL: DILMTQSPSSMSVSLGDTVNITCHSSQDINSNIGWLQQKPGKSFKGLIYHGTNLDDGVPSRFSGSGSGADYSLTISSLESEDFADYYCVQYGQFPWTFGGGTKLEIKR
notes: murine IgG2a
B3 was tested, and the “maximal binding (RU)” value [6] was 800 RU.
